In the supplement of paper PMC10724198:
± gives the standard deviation of the averaged measurements.

Test system: Saccharomyces cerevisiae
Assay: protein stability index of tFT-peptide fusion (C-terminal peptide) (PSI (0-1 scale)); higher = more stable (slower turnover)
Conditions: genetic background: wild type; temperature: 30 C
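Further: PSI is a weighted mean of sequencing reads over stability bins, variants kept only with over 10 reads, mCherry proximal and sfGFP distal, peptide attached via GGGS linker.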

| Sequence | protein stability index |
| --- | --- |
| MCGLVGDVLAVG | 0.762 ± 0.1 |
| LALEVSNLSCSV | 0.696 ± 0.022 |
| CSCSTFWFFFGR | 0.724 ± 0.026 |
| NKWKASRKYRKR | 0.723 ± 0.025 |
| PSSSFFFLSSYL | 0.706 ± 0.043 |
| SSPPRSLLSKSF | 0.722 ± 0.017 |
| NYKFENQIAKPP | 0.655 ± 0.077 |
| RGKREEQVRGGD | 0.622 ± 0.035 |
| LPRPPLLTPSCL | 0.746 ± 0.06 |
| LPNLCRLISFGS | 0.646 ± 0.036 |
| WKKYTKTKKKKN | 0.689 ± 0.021 |
| NVMVRIGKGGVD | 0.6664 ± 0.0041 |
| TGIGCRFIWCSK | 0.65 ± 0.037 |
| TCLGYKLHPARG | 0.718 ± 0.031 |
| IPRERPAEHYGG | 0.6473 ± 0.0018 |
| WRRGIRAKIDSI | 0.678 ± 0.015 |
| VGGGRDLFFFKF | 0.602 ± 0.044 |
| GVKSSRRSLHGS | 0.738 ± 0.037 |
| VVALLGPSGGWW | 0.742 ± 0.018 |
| PRSPPSPTLPHP | 0.609 ± 0.027 |
| FHMPRSSPFLTG | 0.74 ± 0.054 |
| TKRGQMLYQDKE | 0.741 ± 0.1 |
| NLIGVVKSEYHR | 0.574 ± 0.01 |
| ETHRANTRMERL | 0.726 ± 0.049 |
| REGCYVRGGILL | 0.68 ± 0.072 |
| GVVVIVKYKMGV | 0.579 ± 0.031 |

| Sequence | protein stability index |
| --- | --- |
| EVCTFPGSIRSS | 0.521 ± 0.023 |
| LLPPPPLPPPRP | 0.67 ± 0.032 |
| PLSSPFPPSHPL | 0.763 ± 0.029 |
| GVPRNSCHYPYG | 0.6462 ± 0.0049 |
| RSDCLIDSRMVD | 0.694 ± 0.094 |
| HPRRLRPAHTPP | 0.725 ± 0.0075 |
| GKEKGRAEGRDG | 0.701 ± 0.023 |
| GVFIGWAGYKGT | 0.661 ± 0.027 |
| PPWPPLVQPVSL | 0.708 ± 0.066 |
| PPPPPRLPPRPP | 0.6152 ± 0.0052 |
| QFQRTLCGKRWV | 0.685 ± 0.043 |
| SPRPPSLPYAPP | 0.701 ± 0.019 |
| CSGPARERPVRF | 0.709 ± 0.062 |
| ILSGIGNGSGSE | 0.72 ± 0.06 |
| RSGCGYCLVRLG | 0.541 ± 0.0007 |
| SASPVAGWLGGP | 0.677 ± 0.044 |
| STPPLSLRPLLR | 0.608 ± 0.055 |
| SGTFACCLGVCL | 0.6806 ± 0.0062 |
| GDGGGCWSGVGW | 0.643 ± 0.1 |
| VFCGACRLHLCL | 0.69 ± 0.077 |
| EKIRGFPGEIGE | 0.694 ± 0.022 |
| SSALPPLLAFFL | 0.6808 ± 0.0046 |
| PSRPLPPPPPPL | 0.765 ± 0.14 |
| PASLPTPLPLPP | 0.618 ± 0.016 |
| IRREETKRKRNL | 0.755 ± 0.044 |
| EGGGAGGLMRPE | 0.65 ± 0.016 |

| Sequence | protein stability index |
| --- | --- |
| VCCSDSLCFVVS | 0.601 ± 0.052 |
| PLQPPHSPPFPP | 0.7 ± 0.028 |
| PLLPSPPLPCFF | 0.765 ± 0.029 |
| IQLRPFLSSPCR | 0.609 ± 0.035 |
| IWLVRLSCARAF | 0.5374 ± 0.0019 |
| GDSESRTWCQNL | 0.548 ± 0.02 |
| RFPSLCVPFLFP | 0.678 ± 0.013 |
| PLPLPPPPHPSL | 0.723 ± 0.041 |
| SGGGSSSGKGIR | 0.715 ± 0.091 |
| AVGCLGKSRATL | 0.662 ± 0.0088 |
| LHPPHPPPSPPP | 0.626 ± 0.1 |
| GIPIQKLEYMCK | 0.669 ± 0.019 |
| IPGHRHTKRIFG | 0.641 ± 0.012 |
| GSGLEAGVRRWG | 0.67 ± 0.016 |
| PWRPTNPADRSV | 0.61 ± 0.1 |
| SCIAVRDPWGLV | 0.683 ± 0.018 |
| DGVQTVPFSCRL | 0.773 ± 0.28 |
| AGLVPSSLQSVS | 0.695 ± 0.019 |
| PPPPPPRPFPPP | 0.66 ± 0.085 |
| SPPPLLLPLSPP | 0.727 ± 0.047 |
| ILWVSPFFFSLD | 0.699 ± 0.064 |
| PFPSLLPALSSL | 0.678 ± 0.044 |
| RGGGGGVWGHVV | 0.58 ± 0.02 |
| IGTGLVLFSPCY | 0.69 ± 0.022 |
| ALSLPFERVRDT | 0.692 ± 0.022 |
| KDKRKAETKSRN | 0.688 ± 0.037 |

| Sequence | protein stability index |
| --- | --- |
| FLSTGIGKGVFL | 0.694 ± 0.035 |
| AVLERGLCCGEY | 0.738 ± 0.031 |
| QSTGDFAVRQSF | 0.753 ± 0.093 |
| MRPSLSDAMMSS | 0.687 ± 0.055 |
| SIIIRVTQSGSG | 0.6414 ± 0.0056 |
| TERPPRRPKSQG | 0.715 ± 0.038 |
| VWVGGVSVGFFG | 0.716 ± 0.061 |
| YVSYVFDYEVRH | 0.709 ± 0.051 |
| SCVLSYVASYAQ | 0.66 ± 0.018 |
| AKYNISTMTGHT | 0.695 ± 0.024 |
| LPPPLPPATPPP | 0.675 ± 0.16 |
| PPSPDPPPPDLS | 0.649 ± 0.017 |
| VVREARTLNGDM | 0.671 ± 0.099 |
| QPITEALHDSCT | 0.675 ± 0.098 |
| NKVLHPGGKPLT | 0.6637 ± 0.0062 |
| RGSCPFQSWRCS | 0.59 ± 0.038 |
| GCLPGGKRESRG | 0.647 ± 0.11 |
| GEGVRGGEWGLD | 0.717 ± 0.053 |
| EKKRQKKQKTGK | 0.67136 ± 0.00051 |
| VAVVSATVGASG | 0.68 ± 0.026 |
| LPPSPPDPTPPP | 0.594 ± 0.0095 |
| KNKTTKKRKKRP | 0.695 ± 0.057 |
| PFPSPPSPPSPL | 0.817 ± 0.11 |
| WCQREPSSKYKI | 0.578 ± 0.054 |
| PPPLPYKAPRIL | 0.7068 ± 0.0036 |
| SCVGCLYMYWSL | 0.6102 ± 0.0049 |

| Sequence | protein stability index |
| --- | --- |
| GLEVGVRGVMGC | 0.688 ± 0.033 |
| CSGLTLLRFFVW | 0.654 ± 0.064 |
| FAVLGGGGGGGW | 0.711 ± 0.0097 |
| GGGWGRAYSWWV | 0.705 ± 0.012 |
| PPGYPLCLPLGF | 0.7018 ± 0.0035 |
| KGGLLPWGPWNA | 0.743 ± 0.064 |
| LSPHSSLTPPPH | 0.616 ± 0.037 |
| FCLSIFYRAFFD | 0.537 ± 0.024 |
| LHPSPQRHKTLQ | 0.743 ± 0.017 |
| SVPPTCLHDAHF | 0.713 ± 0.053 |
| FFNFVYYFTTPR | 0.635 ± 0.019 |
| TQVGTLANASGP | 0.671 ± 0.046 |
| SVTLVPPPLPFP | 0.677 ± 0.054 |
| PGSILFRGVGAS | 0.691 ± 0.035 |
| PSLQPPLHYPPP | 0.6448 ± 0.0044 |
| PLTSIDTDPPHI | 0.723 ± 0.022 |
| RPAAPGSKGDDN | 0.7 ± 0.043 |
| GEGRAAGEIGGV | 0.707 ± 0.033 |
| PHSTTGPPPPLT | 0.695 ± 0.041 |
| APNGTPPLSLAS | 0.646 ± 0.017 |
| SSDLSNVQTQRL | 0.708 ± 0.065 |
| RPFLLWRVVTPL | 0.611 ± 0.016 |
| LSGLVPSLGCRR | 0.786 ± 0.06 |
| VFIVARGLSLIV | 0.536 ± 0.014 |
| RSSGHQIRDKSA | 0.74 ± 0.022 |
| PQDYITTCQHPT | 0.651 ± 0.079 |

| Sequence | protein stability index |
| --- | --- |
| PYHARPDRSLSG | 0.693 ± 0.035 |
| PSPSPPLAPPVT | 0.647 ± 0.038 |
| RELLYLPPPSDP | 0.821 ± 0.051 |
| PEPSRRASAVSN | 0.648 ± 0.059 |
| TGSGQVSREERS | 0.671 ± 0.036 |
| GSLVGATVSKEC | 0.63 ± 0.083 |
| VTVLFFLGPSLL | 0.575 ± 0.013 |
| KQGHNEIMTKGK | 0.6814 ± 0.0015 |
| APTPPPVLLTPP | 0.6694 ± 0.0063 |
| AVFHPPPILPPP | 0.70154 ± 0.00061 |
| HTDSKVVILFVP | 0.592 ± 0.014 |
| EKGWFDLGGCQV | 0.723 ± 0.035 |
| CPVFYRYCHPPH | 0.707 ± 0.047 |
| LASLVANSRNSL | 0.798 ± 0.27 |
| RPAMSPPPLCPP | 0.625 ± 0.027 |
| ARAAQPVHFLNL | 0.715 ± 0.059 |
| RSPPLEPTLDPL | 0.785 ± 0.1 |
| LPSCKVSLASLL | 0.6281 ± 0.0035 |
| QKWKIIRACVGC | 0.606 ± 0.049 |
| WGWSLARRFLSV | 0.555 ± 0.037 |
| GAVHLNSLPVTK | 0.6983 ± 0.0044 |
| PPRPHPPPRPSS | 0.74 ± 0.048 |
| PPLRLASSPPPV | 0.736 ± 0.062 |
| RFSKGKPVSAGG | 0.632 ± 0.033 |
| LRSCLSIYDCSS | 0.618 ± 0.16 |
| IKNENKKKKNKK | 0.699 ± 0.024 |

| Sequence | protein stability index |
| --- | --- |
| FSASSSLSPFPL | 0.707 ± 0.052 |
| RLPHPHPVRSLP | 0.7 ± 0.022 |
| LLLDIFYWTVQS | 0.615 ± 0.049 |
| REGRTRGTAAER | 0.679 ± 0.027 |
| LLCLVSCFGCWL | 0.585 ± 0.052 |
| GNDRRKNNICEI | 0.701 ± 0.034 |
| KKMKVEKGITQK | 0.775 ± 0.068 |
| KSVSIKGKFTSK | 0.6494 ± 0.00087 |
| RDLVEQTLHIEY | 0.667 ± 0.013 |
| RGVIKNKIKRLK | 0.768 ± 0.078 |
| LGRGRGGPLSGG | 0.7014 ± 0.003 |
| PPAPARFPFLPA | 0.6696 ± 0.001 |
| CLCLCFLDYKAC | 0.5731 ± 0.0051 |
| KTRQSNAPRRTF | 0.707 ± 0.0091 |
| SLCCPLHQTRFR | 0.684 ± 0.046 |
| GKTRLIEDTQTT | 0.67 ± 0.019 |
| AAFERRDPDLKV | 0.766 ± 0.062 |
| GGVVLDEEVGCG | 0.614 ± 0.06 |
| LYLLPLCRPFPY | 0.692 ± 0.013 |
| KSGLMFCIGDWC | 0.7 ± 0.044 |
| GRGEKKKGAKKI | 0.728 ± 0.028 |
| RACALLIVGAGG | 0.527 ± 0.0085 |
| RRSCSMQISSRN | 0.642 ± 0.045 |
| RSDRDGPPRGDS | 0.719 ± 0.087 |
| ALLPLPPSPSLL | 0.719 ± 0.0097 |
| GQGEGRGKIKKG | 0.782 ± 0.037 |

| Sequence | protein stability index |
| --- | --- |
| SPPSSPHPPPRT | 0.693 ± 0.01 |
| GRGERDIGVNQS | 0.6792 ± 0.0031 |
| LLFPSPPLPPPL | 0.784 ± 0.15 |
| PPPQPPPRHSPP | 0.676 ± 0.031 |
| VRSDHSGLEILG | 0.782 ± 0.11 |
| PLPPSPLPRPCP | 0.761 ± 0.054 |
| TPFLPLPSRPRR | 0.726 ± 0.0078 |
| WGECGVWVGLWG | 0.709 ± 0.051 |
| VNLSNLRPCPTR | 0.707 ± 0.065 |
| GVDCPGPKRDRK | 0.626 ± 0.011 |
| PPRYLCLGPGPC | 0.691 ± 0.03 |
| GGLGSHWDCDGL | 0.734 ± 0.093 |
| AGRGRHPRSTWR | 0.688 ± 0.053 |
| LAPPVRECPFML | 0.692 ± 0.072 |
| SWGRYSYIEVMR | 0.7022 ± 0.0057 |
| CGWGVWGAKSGR | 0.6289 ± 0.0049 |
| LLLPPRLPNISP | 0.709 ± 0.044 |
| HRVNKKNCEEKT | 0.631 ± 0.053 |
| SLYPPPAPRASP | 0.773 ± 0.036 |
| SRGWCGRVVWGK | 0.729 ± 0.01 |
